According to the supplement of paper PMC11780869:

System: Bacillus subtilis
Assay: cleaved RNA product abundance (RNA/gDNA barcode ratio) relative to median wild-type variant (ratio to wild type); higher = more accumulation of the downstream cleavage product
Details: cleavage site: cggR-gapA (positions -7 to +36 mutated)
In short: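 The B. subtilis chromosome carried reporter mRNAs, truncated aprE or tetM, containing barcoded RNase Y cleavage-site windows mutagenized using oligos with a 9% error rate. After growth in LB at 37°C from OD600 0.0003 to 0.3, cleaved RNA was gel-selected, reverse transcribed and barcode-sequenced next to genomic DNA barcodes, with UMI collapsing. Each construct's RNA:gDNA barcode ratio was scaled to the median construct with the unmutated site. That scaled ratio is reported as cleaved product abundance.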

[1] = experiment (reporter, strain, medium): exp 4a: truncated aprE reporter, strain BJT201 with 2% xylose (RNase J1 expressed)
[2] = experiment (reporter, strain, medium): exp 2b: truncated aprE reporter, strain BJT200
[3] = experiment (reporter, strain, medium): exp 6: tetM reporter, strain 168

Sequence	cleaved RNA product abundance [1]	cleaved RNA product abundance [2]	cleaved RNA product abundance [3]
ACAGACGAAGGAGCCGCAAAGAAGTTATTAAGGGCTGAATAATCCCTAAATATAAATATCTCTCACTTATTTAAA	0.537		
ACAGACGAAGGAGCCGCAAAGAAGTTATTAAGGGCTGAATAATCCCTCAATATAAATAACTCTCACTTATTTAAA	0.729		
ACAGACGAAGGAGCCGCAAAGAAGTTATTAAGGGCTGAATAATCCCTCAATATAAATATCTCTCACTTATTTAAA	0.593	0.587	0.473
ACAGACGAAGGAGCCGCAAAGAAGTTATTAAGGGCTGAATAATCCCTCAATATACATATCTCTCACTTATTTAAA	0.433		
ACAGACGAAGGAGCCGCAAAGAAGTTATTAAGGGCTGAATAATCCCTCTATATAAATATCTCTCACTTATTTAAA	0.255		
ACAGACGAAGGAGCCGCAAAGAAGTTATTAAGGGCTGAATAATCCCTTAATATAAATATCTCTCACTTATTTAAA	0.626		
ACAGACGAAGGAGCCGCAAAGAAGTTATTAAGGGCTGAATAATTCCTCAATATAAATATCTCTCACTTATTTAAA		0.0668	
ACAGACGAAGGAGCCGCAAAGAAGTTATTAAGGGCTGAATATTCCCTCAATATAAATATCTCTCACTTATTTAAA	0.16	0.228	
ACAGACGAAGGAGCCGCAAAGAAGTTATTAAGGGCTGTATAATCCCTCAATATAAATATCTCTCACTTATTTAAA	0.54		
ACAGACGAAGGAGCCGCAAAGAAGTTATTAAGGGCTTAATAATCCCTCAATATAAATATCTCTCACTTATTTAAA	0.481		
ACAGACGAAGGAGCCGCAAAGAAGTTATTAAGGGGATGAATAATCCCTCAATATAAATATCTCTCACTTATTTAA	0.237		
ACAGACGAAGGAGCCGCAAAGAAGTTATTAAGGGGTAAATAATCCCTCAATATAAATATCTCTCACTTATTTAAA	0.708		
ACAGACGAAGGAGCCGCAAAGAAGTTATTAAGGGGTCAATAATCCCTCAATATAAATATCTCTCACTTATTTAAA	0.611		
ACAGACGAAGGAGCCGCAAAGAAGTTATTAAGGGGTGAAAAATCCCTCAATATAAATATCTCTCACTTATTTAAA	0.504		
ACAGACGAAGGAGCCGCAAAGAAGTTATTAAGGGGTGAATAATCCCTAAATATAAATATCTCTCACTTATTTAAA	0.554		
ACAGACGAAGGAGCCGCAAAGAAGTTATTAAGGGGTGAATAATCCCTCAATATAAATACCTCTCACTTATTTAAA	0.623		
ACAGACGAAGGAGCCGCAAAGAAGTTATTAAGGGGTGAATAATCCCTCAATATAAATATCTCTCACTTATTTAAA	0.741	0.652	0.741
ACAGACGAAGGAGCCGCAAAGAAGTTATTAAGGGGTGAATAATCCGTCAATATAAATATCTCTCACTTATTTAAA	0.0683	0.159	
ACAGACGAAGGAGCCGCAAAGAAGTTATTAAGGGGTGAATAATCCTTCAATATAAATATCTCTCACTTATTTAAA	0.266		
ACAGACGAAGGAGCCGCAAAGAAGTTATTAAGGGGTGAATAATTCCTCAATATAAATATCTCTCACTTATTTAAA	0.228		
ACAGACGAAGGAGCCGCAAAGAAGTTATTAAGGGGTGAATACTCCCTCAATATAAATATCTCTCACTTATTTAAA	0.256		
ACAGACGAAGGAGCCGCAAAGAAGTTATTAAGGGTAGAATAATCCCTCAATATAAATATCTCTCACTTATTTAAA	0.293	0.172	
ACAGACGAAGGAGCCGCAAAGAAGTTATTAAGGGTCGAATAATCCCTCAATATAAATATCTCTCACTTATTTAAA	0.211		
ACAGACGAAGGAGCCGCAAAGAAGTTATTAAGGGTTAAATAATCCCTCAATATAAATATCTCTCACTTATTTAAA	0.753		

Sequence	cleaved RNA product abundance [1]	cleaved RNA product abundance [2]	cleaved RNA product abundance [3]
ACAGACGAAGGAGCCGCAAAGAAGTTATTAAGGGTTGAAAAATCCCTCAATATAAATATCTCTCACTTATTTAAA	0.565		
ACAGACGAAGGAGCCGCAAAGAAGTTATTAAGGGTTGAACAATCCCTCAATATAAATATCTCTCACTTATTTAAA		0.387	
ACAGACGAAGGAGCCGCAAAGAAGTTATTAAGGGTTGAATAAACCCTCAATATAAATATCTCTCACTTATTTAAA	0.406	1.07	
ACAGACGAAGGAGCCGCAAAGAAGTTATTAAGGGTTGAATAAGCCCTCAATATAAATATCTCTCACTTATTTAAA	0.608		
ACAGACGAAGGAGCCGCAAAGAAGTTATTAAGGGTTGAATAATACCTCAATATAAATATCTCTCACTTATTTAAA	0.234	0.146	
ACAGACGAAGGAGCCGCAAAGAAGTTATTAAGGGTTGAATAATCACTCAATATAAATATCTCTCACTTATTTAAA	0.127	0.098	
ACAGACGAAGGAGCCGCAAAGAAGTTATTAAGGGTTGAATAATCCATCAATATAAATATCTCTCACTTATTTAAA	0.205		
ACAGACGAAGGAGCCGCAAAGAAGTTATTAAGGGTTGAATAATCCCACAATATAAATATCTCTCACTTATTTAAA	0.0861		
ACAGACGAAGGAGCCGCAAAGAAGTTATTAAGGGTTGAATAATCCCTCAAAATAAATATCTCTCACTTATTTAAA	0.222		
ACAGACGAAGGAGCCGCAAAGAAGTTATTAAGGGTTGAATAATCCCTCAACATAAATATCTCTCACTTATTTAAA	0.237		
ACAGACGAAGGAGCCGCAAAGAAGTTATTAAGGGTTGAATAATCCCTCAATATAAATATCTCTCACTTATTTAAA	0.483	0.396	0.439
ACAGACGAAGGAGCCGCAAAGAAGTTATTAAGGGTTGAATAATCCCTCAATATAAATATTTCTCACTTATTTAAA	0.512		
ACAGACGAAGGAGCCGCAAAGAAGTTATTAAGGGTTGAATAATCCCTCAATATAAATCTCTCTCACTTATTTAAA	0.173		
ACAGACGAAGGAGCCGCAAAGAAGTTATTAAGGGTTGAATAATCCCTCAATATAAATTTCTCTCACTTATTTAAA	0.436		
ACAGACGAAGGAGCCGCAAAGAAGTTATTAAGGGTTGAATAATCCCTCAATATACATATCTCTCACTTATTTAAA	0.404		
ACAGACGAAGGAGCCGCAAAGAAGTTATTAAGGGTTGAATAATCCCTCAATATATATATCTCTCACTTATTTAAA	0.371		
ACAGACGAAGGAGCCGCAAAGAAGTTATTAAGGGTTGAATAATCCCTCAATTTAAATATCTCTCACTTATTTAAA	0.132		
ACAGACGAAGGAGCCGCAAAGAAGTTATTAAGGGTTGAATAATCCCTCCATATAAATATCTCTCACTTATTTAAA	0.0987		
ACAGACGAAGGAGCCGCAAAGAAGTTATTAAGGGTTGAATAATCCCTCTATATAAATATCTCTCACTTATTTAAA	0.151	0.157	
ACAGACGAAGGAGCCGCAAAGAAGTTATTAAGGGTTGAATAATCCCTGAATATAAATATCTCTCACTTATTTAAA	0.299		
ACAGACGAAGGAGCCGCAAAGAAGTTATTAAGGGTTGAATAATCCCTTAATATAAATATCTCTCACTTATTTAAA	0.608		
ACAGACGAAGGAGCCGCAAAGAAGTTATTAAGGGTTGAATAATCCGTCAATATAAATATCTCTCACTTATTTAAA	0.187		
ACAGACGAAGGAGCCGCAAAGAAGTTATTAAGGGTTGAATAATCCTTCAATATAAATATCTCTCACTTATTTAAA	0.358		
